{"source": "patent US7083777B1", "about": "“Immunomodulating polymers” (priority 1999, dated 2006)", "molecules": {"B1": {"name": "recombinant IL-10: recombinant interleukin-10 (protein, UniProt P22301 19-178, looked up)", "Interleukin-10": "SPGQGTQSENSCTHFPGNLPNMLRDLRDAFSRVKTFFQMKDQLDNLLLKESLLEDFKGYLGCQALSEMIQFYLEEVMPQAENQDPDIKAHVNSLGENLKTLRLRLRRCHRFLPCENKSKAVEQVKNAFNKLQEKGIYKAMSEFDIFINYIEAYMTMKIRN"}, "B2": {"name": "IL-4: interleukin 4 given at 100 pg as comparison (protein, UniProt P05112 25-153, looked up)", "Interleukin-4": "HKCDITLQEIIKTLNSLTEQKTLCTELTVTDIFAASKNTTEKETFCRAATVLRQFYSHHEKDTRCLGATAQQFHRHKQLIRFLKRLDRNLWGLAGLNSCPVKEANQSTLENFLERLKTIMREKYSKCSS"}}, "key": {"[1]": {"conditions": "0.01% solution of about 1500 kDa HA; model normally produces more than 70% adhesions; cited from earlier work"}, "human T cells": {"system": "human T cells", "assay_type": "cell-based", "conditions": "20 μg/ml, 6 days post-incubation"}, "B. fragilis [2]": {"system": "B. fragilis", "assay": "Rat model of intraabdominal sepsis, abscess formation after B. fragilis challenge", "assay_type": "in vivo", "conditions": "50 μg dose"}, "B. fragilis [3]": {"system": "B. fragilis", "assay": "IL-10-mediated protection against abscess formation", "assay_type": "in vivo, rat", "method": "In order to examine further the role of IL-10 in the abscess model, male Wistar rats (150 g) were treated with recombinant IL-10, anti-IL-10, or isotype antibody control beginning on the day of challenge with 1×10^8 cfu B. fragilils. Further comparison was made using a group treated with Streptococcus pneumoniae type I CP alone or together with anti-IL-10. Animals were sacrificed and examined six days after challenge."}, "B. fragilis [4]": {"system": "B. fragilis", "assay": "Protection against abscess formation by recombinant cytokine given intracardially at challenge", "assay_type": "in vivo, rat", "conditions": "100 pg intracardiac at time of challenge, 10^8 cfu B. fragilis; Experiment A"}, "[5]": {"conditions": "0.2 μg i.p. at 0, 24, 48 and 72 hours relative to challenge"}}, "data": [{"molecule": "hyaluronic acid [HA]", "values": [{"measurement": "prevention of severe intra-abdominal adhesions (in words)", "setting": "[1]", "result": "effectively prevents all severe intra-abdominal adhesions"}]}, {"molecule": "poly-L-lysine", "values": [{"measurement": "T cell activation (in words)", "setting": "human T cells", "result": "did not stimulate T cell proliferation"}, {"measurement": "Protection against abscess formation vs saline (in words)", "setting": "B. fragilis [2]", "result": "did not protect against abscess formation"}]}, {"molecule": "B1", "values": [{"measurement": "Protection against abscess formation vs isotype control antibody (in words)", "setting": "B. fragilis [3]; 0.2 μg i.p.", "result": "protected from abscess formation"}, {"measurement": "Abscess formation (%)", "setting": "B. fragilis [3]; [5]", "result": 13, "unit": "%"}, {"measurement": "No. animals with abscess/total", "setting": "B. fragilis [3]; [5]", "result": "2/16"}]}, {"molecule": "B2", "values": [{"measurement": "Abscess formation (%)", "setting": "B. fragilis [4]", "result": 75, "unit": "%"}]}]}
